This assay deals with gp41 of HIV-1 IIIB (HIV-1 IIIB) (UniProt P04578).

Data on two substances can be found in publication PMC10249821.

biosynthesized enfuvirtide (peptide) displayed an IC50 of inhibition of HIV-1 IIIB infection of MT-4 cells (MTT assay of virus-induced cytopathic effect, 5 days post infection) of 0.0453 µM.

“Enfuvirtide Primary Reference Standard (peptide)” displayed an IC50 of inhibition of HIV-1 IIIB infection of MT-4 cells (MTT assay of virus-induced cytopathic effect, 5 days post infection) of 0.018 µM.
